Consider 41 sequences from the nanobody polyreactivity screen of Harvey et al. (2022).

A short description of the data set: yeast display, Sf9 membrane polyspecificity reagent, FACS + sequencing; frameworks hold sequencing errors. The essentials: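 A nanobody's polyreactivity label depends on the gate it was sorted from. Yeast display cells were stained with 10% biotinylated, detergent-solubilized Sf9 membrane reagent for 1 hour at 4 °C, enriched on streptavidin microbeads and sorted by FACS. The low and high (top ~1%) gates were set on anti-HA fluorescence for expression and streptavidin fluorescence for reagent binding.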
Regarding “QVQLVEYGGGLDQAGGSLRLSCAAYGLTFSPYAMGWYRQAPGKEMELVATITIGGSTKYADSVKGRVTISRDNAKNTVYLQMNSLKPEDTAVYYCAVRSGYVTRRYDYWGQGTQVTVSS”, the “polyreactivity (PSR sort gate)” value is on record as “low polyreactivity”.

On to “QVQLVESGGGLVQAGRSLRLSCAASGSIFTYYAMGWYRQAPGKERELVAAINWSDSSTYNADSVKGRFTISRDNAKNTVYLQMNSLKPEDTAVYDCAATNYADGDYWGQGTQVTVSS”, for which the “polyreactivity (PSR sort gate)” value is “low polyreactivity”.

On to “KDQLVESGGGLVQAGGSLRLSGAASGRTFASNDMVWYRQAPGKERELVADINNGARTYYADSVKGRFTISRDNAKNTVYLQMNSLKPEDSAVYYCNARPWYWWECRYDYWGQGTQVTVSS”, for which the “polyreactivity (PSR sort gate)” value was “high polyreactivity”.

On to “QVHLVESGGGLVQAGGSLRLSCAASGSIYVNTMGWYRQAPGKDRELVAGISRSTGRTYYADSVKGRFTISRDNAKNTVYLQMNSLKPEDTAVYYCNTVPWRRWGYDYWGQGTQVTVSS”, for which the “polyreactivity (PSR sort gate)” value is recorded as “high polyreactivity”.

With “QVQLVESGGGLVQAGGSLRLSCAASGLIFGTYAMGWYRQAPGKERELVAVISSSGGSTYYADSVKGRFTISRDNAKNTVYLQLNSLKPEDTAVYYCNARAFRQGHFEYDYWGQGTQVTVSS”, the “polyreactivity (PSR sort gate)” value was “low polyreactivity”.

Regarding “QAQLVESGGGLVQAGGSLRLSSAATGIIFGRYAMGWYRQAPGKERELVAAISTSGGSTYYADSVKGRFTISRDNAKNTVYLQMNSLKAEDTAVYYCAVDLFYKYDWGQGTQVTVSS”, the “polyreactivity (PSR sort gate)” value is listed as “high polyreactivity”.

On to “QVQLVESGGGLFQAGGSLRLSCAASGRIFYTNVMGWYRPAPGKERELVAAISTGGGRTYYADSVKGRFTISRDYAKNTVYLQMNSLKPEDTAVYYCAADWRTKGYDSLGQGTQVTVSS”, for which the “polyreactivity (PSR sort gate)” value is on record as “high polyreactivity”.

Take “QVQLVESGGGLVQAGGSLRLSCAASGSTFWDYAMGWYRPAPGKERELVAAISTSGGSTYYADSVKGRFTISRDNAKNTVYLQMNSLKPEDPAVYYFAAGRVRRRVWYNYWGQGTQVTVSS”: the “polyreactivity (PSR sort gate)” value is recorded as “high polyreactivity”.

As to “QVQIVESGGGLVQAGGRLRLSCAASGFTLYRYAMGWYRQAPGKEREFVAAITRTGGTTYYADSVKGRFTISRDNAKNTVYLQMNSLKPEDTAVYYCAAGANAWYSYRYDYWGQGTQVTVSS”, the “polyreactivity (PSR sort gate)” value is given as “high polyreactivity”.

On to “QVQLEESGGGLVQAGGSLRLSCAASGRIFYLNAIGWYRQAPRKATELVAAINTSGDSTYYADSVKGRFTISRDNAKNTVYLQMNSLKPEDTAVYYCAAFGIGPDQFIYDYWGQGTKVTVSS”, for which the “polyreactivity (PSR sort gate)” value is reported as “low polyreactivity”.

As for “QVQLVESGGGLVQAGGSLRLSCAASGRTFALYTMGWYRQAPGKERELVAAINWSGTSTYYADSVKGRFTISRDTAKNTVYLQMNSLKPEDTAVYYCNARGQYNRLMDYWGQGTKVTVSS”, the “polyreactivity (PSR sort gate)” value is “low polyreactivity”.

With “QVQLVESGGGLVQAGGSLRLSCAASGITFDQNAMGWSRQEPGKESEFVAAISVSGARTYYADSVKGRFTISRDNAKNTVYLQMNSLKPEDTAVYYCAAYGGTRYYYSYYYWGQGTQVTVSS”, the “polyreactivity (PSR sort gate)” value was “high polyreactivity”.

Turning to “QVQLVESGGGLVQPGGSLRLSCAASGATLRSNAMGWSRQAPGKERELVAGISSGGGTYYADSVKGRFTISRDNAKNTVYLQMNSLNTEDTAVYYCAKVVYFGWSVQYYYWGQGTQVNVSS”, the “polyreactivity (PSR sort gate)” value is listed as “low polyreactivity”.

With “QVQLVESGGGLVQAGGSLRLSCAASGFTFYRNAMGWYRQAPGKERELVAAISWRGSSTYYADSVKGRFTISRDNAKNTVYLQMNSLKPEDTAVYYCATEYPYWYYYRMDYWGQGTQVTVSS”, the “polyreactivity (PSR sort gate)” value was “high polyreactivity”.

Consider “QVQLVESVGGLVQAGGSLRLSCAASGRIIRWYAMGWYRQAPGKERELVAAISGSGGSTYYADSVKGRFTISRDNAKNTVYLQMNSLKPEDTAVYYGAAGYYLRRYYYWGQGTQVTVSS”, for which the “polyreactivity (PSR sort gate)” value was “high polyreactivity”.

With “QVQLVESGGGLVQAGGSLRLSCAASGRTSRNNVMGSYRQAPGKERELVAAITKRTDRTYYADSVKGRFTISRDNAKNTVYLQMNSLKPEDTAVYYCAADLSLSTGGRAFPTYGYWGQGTQVTVSS”, the “polyreactivity (PSR sort gate)” value is “high polyreactivity”.

In the case of “QVQLVESGGGLVQAGGSLRLSCAASGRIFRYNAMGWSRQAPGKERELVAAISRRGGTTYYADSVKGRFTISRDNAKNTVYLQMNSLKPEDTAVYDCAAQYRQRRHDYWGQGTQVTVSS”, the “polyreactivity (PSR sort gate)” value was “high polyreactivity”.

Consider “QVQLVESGGGLVQAGGSLRLSCAASGSTFWIYAMGWYRPAPGKERELVAAITLRSGSTYYADSVKGRFTISRDNAKNTVYLQMNSLKPEDTAVYYCAKDYYGTYYAQYNYWGQGTQVTVSS”, for which the “polyreactivity (PSR sort gate)” value is listed as “low polyreactivity”.

For the sequence “QVQLVESGGGLVQAGCSLRLSCAASGLTSTANAMGWYRQAPGKERELVAGITTGGSTYYADSVKGRFTISRDNAKNTVYLQMISLKPEDTAVYYCNAPTYADTTYDYWGQGTQVTVSS”, the “polyreactivity (PSR sort gate)” value is “low polyreactivity”.

Turning to “QVQLVESGGGLVQAGGSLRLSCAASGITFHEYAMVWYRQAPGKERELVAAISASGGTTYYADSVKGRFTISRDNAKNTVYLQMNSLKPEDTAVYYCAALPLYITEYGYWGQGTQVTVSS”, the “polyreactivity (PSR sort gate)” value was “high polyreactivity”.

On to “QVQLQESGGGLVQAGGSLRLSCAASGYISLAQTIGWYRQAPGKEREFVASIALGSSTYYTDSVKGSFTISRDNANTPVYLQMNSLKPEDTAVYYCAARVGASYAHDYWGQGTQVTVSC”, for which the “polyreactivity (PSR sort gate)” value is on record as “low polyreactivity”.

As to “QVQLVESGGGLVQAGGSLRLSCAASGSIFNIYAMGWYRQAPGKESELVAAISYSGGSTYYADSVKGRFTISRDNAKNTVYLQMNSLKPEDTAVYYCNADGYYFLISNANPLGYWGQGTQVTVSS”, the “polyreactivity (PSR sort gate)” value is “low polyreactivity”.

Turning to “QVQLVESGGGLVQAGGSLRLSCAASGRIFWYYAMGWYRQAPGKERELVARISSSGGSTYYADSVKGRFTISRDNAKNTVYLQMNSLKPEDTAVYYCAAEHYILYDYLWAYDYWGQGTQVTVSS”, the “polyreactivity (PSR sort gate)” value is “high polyreactivity”.

Regarding “QVQLVESGGGLVQAGGSLRLSCAASGRTFSYNARGWYRPAPGKEMELVASISSSGTSTSYADSVKGRFTISRDYAKNTVYLQMNSLKPEDTAVYYCATVRYPYWYSGPQNSRGYWGQGSQVTVSS”, the “polyreactivity (PSR sort gate)” value is given as “high polyreactivity”.

Take “QVKLVESGGGLVQAGGSLRLSCPASGSTFYYNAMGWYRQAPGKERELVARISRSGGSTYADSVKGRFTISRDNAKNTVYLQMNSLKPEDTAVYYCNADAYGTPEFTSYAVRYDYWGQGTQVTVSS”: the “polyreactivity (PSR sort gate)” value is on record as “low polyreactivity”.

For “QVQLVESGGGLVQAGGSLRLSCAADGFTFYVYAMGWYRQAPGKERELVADISRRGGSTYYADYVKGRFTISRDNEKNHVYLQMNSLKPEDTAVYYCAAQYYGGGTYWYRYGYWGQGTQVTLSS”, the “polyreactivity (PSR sort gate)” value is recorded as “high polyreactivity”.

As to “QVQLVESGGGLVQAGGSLRLSCAASGFTFARYALGWYRQAPGKERELVAGITYRGGRTYYADSVKGRFTISRDNEKNTVYLQMNRLKPEDTAVYYCARYGPIKYYSWGQGTQVTVSS”, the “polyreactivity (PSR sort gate)” value was “high polyreactivity”.

Turning to “QVQLVESGGGLVQAGVSLRLSCAASGLTFGAYAMGWYRQAPGKERELVAAINVSGGSTYYADSVKGRFTISRDNAKNTVYLQMNSLKPEDTAVYYCNAGLVLGGIFIPLYDYWGQGTQVTVSS”, the “polyreactivity (PSR sort gate)” value is recorded as “high polyreactivity”.

Take “QVQLVESGGGLVQAGGSLRLSCAASGITFSSYTMGWYRQARGKERELVAAISRTGGSTYYADSVKGRFTISRDNAKNTVYLQMNSLIPEDTAVYYCAARVAGRTLSGGDYWGQGTQVTVSS”: the “polyreactivity (PSR sort gate)” value was “high polyreactivity”.

As for “QVQLVESGGGLVQAGGSLRLSCAASGSIFAANAMGWYRQATGKESELVAAISWSGGSTYADSVKGRFTISRDNAKNTVYLQMNSLKPEDTAVYYCNAFVYVGTGRGYDTLDYWGQGTQVTVSS”, the “polyreactivity (PSR sort gate)” value is “low polyreactivity”.

For the sequence “QVQLVESGGGLVQAGGSLRLSCAASGFTFVKNAMGWYRQAPGNERELVAAISQSGGSTYYADSVKGRFTISRDNAKNTVYLQMNSLKPEDTAVYYCAATYYTYWGYRDYYWGQGTQVTVSS”, the “polyreactivity (PSR sort gate)” value is listed as “high polyreactivity”.

As for “QVQLVESGGGLVQAGGSLRLSCAASGTFYYYAMGWYRQAPGKERDLVAGITSGGSTYYADSVKGRFTISRDNAKNTVYLQMNSLKPEDTAVYYCNTKVISRTSERRGNGFTRYDYWGQGTQVTVSS”, the “polyreactivity (PSR sort gate)” value is listed as “low polyreactivity”.

Take “QVQLVESGGGLVQAGGSLRLSCAASGNTIGKYAMGWYRQAPGKETELVATITRRGGSTYYADSVKGRFTISRDNAKNTVYLQMNSLKPEDTAVYYCNRAVTYGTYDYWGQGTQVTVSS”: the “polyreactivity (PSR sort gate)” value was “high polyreactivity”.

Take “QVQLVESGGGLVQAGGSLRLSCAASGFIFGYYAMGWYRPAPGNERELVAAIDWSDGSTYYADSVKGRFTISRDNAKNTVYLQMNSLKPEDTAVYYSAVDTYSQQAGDYEYWGQGTQVTVSS”: the “polyreactivity (PSR sort gate)” value is given as “low polyreactivity”.

As for “QVQLVESGGGLVQAGGSLRLSCAASGSTFDPYAMGWYRQAPGKERELVAGISASGGSTYADSVKGRFTISRDNAKNTVYLQMNSLKPEDTACYYCAADTYLIRGPPDEEYWGQGTQVTVSS”, the “polyreactivity (PSR sort gate)” value is “low polyreactivity”.

Consider “QVQLVESGGGLFQAGGSLRLSCAASGLTLYFYVMGWYRQAPGKERELVAAISSTGSTYYADSVKGRFTISRDNAKNTVYLQMNSLKPEDTAVYYCAARYGGHYGAEYYWGQGSQVTVSS”, for which the “polyreactivity (PSR sort gate)” value is recorded as “high polyreactivity”.

Consider “QVQLVESGGGLVQAGGSLRLSCAASGSIFPDNAMGWYRQAPGKERELVAAITRGGSTYYADSVKGRFTISRDNAKNTVYLQMNSLKPEDTAVYYCAARRRYLWSYDYWGQGTQVTVSS”, for which the “polyreactivity (PSR sort gate)” value was “high polyreactivity”.

On to “QVQLQESGGGLVQAGGSLRLSCAASGNIFLGDTMGWYRQAPGKEREFVAGIARGGNPYYADSVKGRFTISRNNAKNTVFLQKNSLKPEDTAVHYCAVQRSHASDYNYWGQGTQVTVSS”, for which the “polyreactivity (PSR sort gate)” value was “low polyreactivity”.

As for “QVQLVESGGGLVQAGGSLRLSCAASGSTLVGYDMGWYRQAHGKEMELVADITSTGSTNYADSVKGSFTISRDNAKNTVYLQMNSLKPEDTAVYYCAADLYFYIYSYNYWGQGTQVTVSS”, the “polyreactivity (PSR sort gate)” value is “low polyreactivity”.

Regarding “QVQLVESGGGLVQAGGSLRLSCAASGRTLDSNAMGWYRQAPGKERDLVATISKRGGNTYYADSVKGRFTISRDNAKNTVYLQMNSLKPEDTAVYYCAKDVPPEYPTSSYDYWGQGTQVTVSS”, the “polyreactivity (PSR sort gate)” value is recorded as “low polyreactivity”.

Consider “QVQLVESGGGLVQAGGSLRLSCAASGFIFYRYAMGWYRQAPGKERELVAAITSDGSTYYADSVKGRFTISRDNAKNTVYLQMNSLKPEDTAVYYCNAERWGNSVGNYWGQGTQVTVSS”, for which the “polyreactivity (PSR sort gate)” value is on record as “high polyreactivity”.
